Publication PMC9063426, “MAP kinases differentially bind and phosphorylate NOS3 via two unique NOS3 sites” (FEBS Open Bio, 2022)
“Also recorded” adds a separate entry of the source.

Columns and labels:
NOS3 [1] = assay: Oxyhemoglobin assay of NO production by kinase-treated NOS3; assay type: biochemical, human; conditions: oxyHb assay, 2.5 µM NOS3 with ERK2 14 nM (N = 10), p38α 14 nM (N = 4), JNK1α1-GST 63 nM (N = 3) or PKA 14 nM (N = 4), 30 min; versus untreated NOS3
Protocol: (§1) Active (HIS‐NOS3) was incubated alone or with individual kinases (ERK2, p38α, JNK1α1, and PKA) in 100 µL reaction buffer (20 mM HEPES, 0.5 mM DTT, 5 mM MgCl2, 0.5 mM ATP, and 10% glycerol at a pH of 7.4). The reactions were performed at 22‐25 °C for up to 1 h, and for the examination of nitric oxide activity, samples were incubated on ice for the immediate detection of NO via the oxyhemoglobin to methemoglobin assay (see below). For immunoblotting analysis to examine phosphorylation, kinase samples were quenched with 2× sample buffer spiked with 25 mM DTT and heated to 95 °C for 5 min. Boiled samples (at equal volumes) were electrophoresed and transferred to PDVF for immunoblot staining.
The oxyhemoglobin assay (oxyHb assay) is a spectroscopic method that measures the oxidative reaction of oxyhemoglobin at 421 nm (oxyHb) and methemoglobin (metHb) at 401 nm. Kinase assay reactions quenched on ice were used to measure NO synthesis and consumption. All oxyHb reactions were performed at 25 °C in a BioTek 96‐well UV‐visible spectrophotometer. […] Absorbance at 401 nm and 421 nm were read for 1 m at 15‐s intervals. […] Measurements were recorded for 10 min at 15‐s intervals.
To calculate NOS3 activity, the change in absorbance/unit time was divided by the extinction coefficient (ε401‐421 = 77 200 M ^−1cm^−1 (ε401 = 38 600 M ^−1cm^−1)). […]

NOS3 (bovine) = assay: BLI binding of JNK1α1 to full-length NOS3
Protocol: Biolayer interferometry (BLI) experiments were performed on a FortéBio (Menlo Park, CA) Octet QK biosensor using streptavidin (SA) sensors. Assays were performed in opaque 96‐well microplates at 25 °C. All volumes were 200 μL. Active GST‐JNK1α1 (SignalChem) was biotinylated by amine crosslinking to NHS‐LC‐LC‐biotin (succinimidyl‐6‐[biotinamido]‐6‐hexanamidohexanoate) (Thermo Fisher, Waltham, MA, USA). Reactions were performed at a 5 : 1 molar ratio of biotin to protein for 30 min at room temperature followed by separation of protein from free biotin by passage over a desalting column. Biotinylated JNK1α1 was loaded onto sensors for 300 s, which was sufficient to saturate them. Baseline was established by dipping sensors into binding buffer (50 mM Tris, pH 7.4, 10 mM NaCl, 10% glycerol, 0.01% Tween‐20) prior to moving sensors to wells containing varying concentrations of serially diluted NOS3 in the same buffer. Association was measured for 300 s, after which sensors were moved to wells containing buffer only and dissociation was monitored for another 300 s. […] Total binding was used for analysis as nonspecific binding measured by exposing sensors without ligand to analyte was negligible at all NOS3 concentrations used; that is, total binding was effectively specific binding due to very low nonspecific binding. […]

NOS1 = assay: BLI binding of MAP kinases to NOS1; design: species or system bovine; conditions: purified active JNK1α1
NOS3 [2] = assay: In vitro kinase assay with NOS3, phospho-specific immunoblotting; assay type: biochemical, human; conditions: active kinases with NOS3, 5 and 60 min, immunoblot with anti-pS114
Protocol: as §1
All samples were loaded at equal volumes on 3–8% gradient tris‐acetate gels. All gels were transferred to PVDF membranes and transferred for either 2 h at 40V or for 20V overnight. Membranes were blocked with one block (Li‐Cor Biosciences) for 30 m and incubated with respective antibodies (at manufacturers recommend concentrations for immunoblotting, 1 : 500 for the anti‐pS600‐NOS3) overnight at 4 °C. Blots were brought to RT for 30 m and washed 3× with 1X TBST for 10 m, probed with a fluorometric secondary antibody (Li‐Cor IRDye®) for 1 h, and washed before visualizing with a Li‐Cor Odyssey.

NOS3 [3] = assay: TCSPC fluorescence lifetime, conformation of NOS3; conditions: FMN excited at 473 nm, detected at 525 nm; NOS3 holoenzyme
Protocol: Time‐resolved intensity decays were recorded using time‐correlated single‐photon counting fluorescence lifetime spectrometry (TCSPC FLT) to determine whether phosphorylation by JNK1α1 changes the conformation of NOS3.

Kd (NOS3 (bovine); 400 nM trace eliminated from fit): 18 nM
kon (NOS3 (bovine); BLI, active GST-JNK1α1 ligand, NOS3 analyte, 25 °C, pH 7.4, global one-state fit): 4106 M⁻¹ s⁻¹
B1: mitogen‐activated protein kinase 8 (protein)
chain: MSRSKRDNNFYSVEIGDSTFTVLKRYQNLKPIGSGAQGIVCAAYDAILERNVAIKKLSRPFQNQTHAKRAYRELVLMKCVNHKNIIGLLNVFTPQKSLEEFQDVYIVMELMDANLCQVIQMELDHERMSYLLYQMLCGIKHLHSAGIIHRDLKPSNIVVKSDCTLKILDFGLARTAGTSFMMTPYVVTRYYRAPEVILGMGYKENVDLWSVGCIMGEMVCHKILFPGRDYIDQWNKVIEQLGTPCPEFMKKLQPTVRTYVENRPKYAGYSFEKLFPDVLFPADSEHNKLKASQARDLLSKMLVIDASKRISVDEALQHPYINVWYDPSEAEAPPPKIPDKQLDEREHTIEEWKELIYKEVMDLEERTKNGVIRGQPSPLAQVQQ
modifications: active (phosphorylated) form; biotinylated by amine crosslinking to NHS-LC-LC-biotin, 5 : 1 molar ratio of biotin to protein; left off: GST, end not stated, kept
notes: c-Jun N-terminal kinase
NO production / NOS3 activity (NOS3 [1]): do not significantly change NO production; also recorded: did not alter in vitro NOS3 activity
binding to NOS1 (NOS1): No evidence of JNK1α1 binding to NOS1 beyond nonspecific binding; also recorded: no binding could be detected
phosphorylation of NOS3 at S114 (NOS3 [2]): predominantly phosphorylated NOS3 at S114; also recorded: phosphorylates S114; also recorded: easily detected when compared to ERK2
conformation of NOS3 (fluorescence decay) (NOS3 [3]): no significant change in conformation; also recorded: did not differ significantly from that of unphosphorylated NOS3; also recorded: did not meaningfully change the confirmation of NOS3
